Results taken from PMC12205877.

T1: TaBZR2 (Triticum aestivum (ZM1860), UniProt A0A3B6FJ07 1-354)
T1 sequence: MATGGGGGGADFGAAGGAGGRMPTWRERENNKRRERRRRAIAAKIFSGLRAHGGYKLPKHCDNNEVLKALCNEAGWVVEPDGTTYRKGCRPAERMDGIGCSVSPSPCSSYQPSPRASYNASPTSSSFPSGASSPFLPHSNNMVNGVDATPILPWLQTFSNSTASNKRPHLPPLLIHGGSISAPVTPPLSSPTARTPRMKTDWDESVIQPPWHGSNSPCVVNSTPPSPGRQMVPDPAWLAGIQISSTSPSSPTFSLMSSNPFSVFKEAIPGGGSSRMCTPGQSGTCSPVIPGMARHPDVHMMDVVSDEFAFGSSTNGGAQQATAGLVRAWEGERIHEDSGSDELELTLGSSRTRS

B1: TaHSP21 promoter E-box probe (WT) (dsDNA)
DNA 1: AAGCACATATGTGTTGAAACAAGTGCAAAATGACAAGTGAGGGC
DNA 2: GCCCTCACTTGTCATTTTGCACTTGTTTCAACACATATGTGCTT
B2: TaHSFb2a promoter E-box probe (WT) (dsDNA)
DNA 1: CCGTTTCTAGAAACCTCGCCACGTGGCCGACTAGAAAGGATCG
DNA 2: CGATCCTTTCTAGTCGGCCACGTGGCGAGGTTTCTAGAAACGG
B3: TaHSFb2a promoter mutated E-box probe (dsDNA)
DNA 1: CCGTTTCTAGAAACCTCGCTGTACAGCCGACTAGAAAGGATCG
DNA 2: CGATCCTTTCTAGTCGGCTGTACAGCGAGGTTTCTAGAAACGG
B4: TaHSP21 promoter mutated E-box probe (dsDNA)
DNA 1: AAGCATGCGCATGTTGAAATGGACACAAAATGATGGACAAGGGC
DNA 2: GCCCTTGTCCATCATTTTGTGTCCATTTCAACATGCGCATGCTT

Assays:
[1] = target: T1, TaBZR2; assay: EMSA
[2] = target: T1, TaBZR2; assay: competition
[3] = target: T1, TaBZR2; assay: competition; remark: listed apart in the source

| Binder | binding result [1] | also measured |
| --- | --- | --- |
| B1 | binds | – |
| B2 | binds | – |
| B3 | – | binding result [2]: no binding |
| B4 | – | binding result [3]: no binding |
